# In US11267868 (dated 2022):
# Residue numbers refer to the chain shown, from its start.
# T1: FcgRIIaH (human, UniProt P12318)
# T1 chain: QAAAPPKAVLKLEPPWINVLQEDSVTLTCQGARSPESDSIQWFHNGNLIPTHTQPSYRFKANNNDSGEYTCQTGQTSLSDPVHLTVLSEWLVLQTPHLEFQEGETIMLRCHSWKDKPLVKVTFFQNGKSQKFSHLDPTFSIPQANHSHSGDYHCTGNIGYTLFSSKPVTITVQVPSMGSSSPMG
# T2: FcgRIIb (human, UniProt P31994)
# T2 chain: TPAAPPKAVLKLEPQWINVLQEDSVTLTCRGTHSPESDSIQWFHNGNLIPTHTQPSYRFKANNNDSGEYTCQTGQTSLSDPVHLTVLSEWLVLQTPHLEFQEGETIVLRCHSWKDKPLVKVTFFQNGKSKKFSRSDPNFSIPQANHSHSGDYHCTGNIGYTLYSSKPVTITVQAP
# T3: FcgRIIaR (human, UniProt P12318)
# T3 chain: T1 chain with H134R
# T4: FcgRIa (human, UniProt P12314)
# T4 chain: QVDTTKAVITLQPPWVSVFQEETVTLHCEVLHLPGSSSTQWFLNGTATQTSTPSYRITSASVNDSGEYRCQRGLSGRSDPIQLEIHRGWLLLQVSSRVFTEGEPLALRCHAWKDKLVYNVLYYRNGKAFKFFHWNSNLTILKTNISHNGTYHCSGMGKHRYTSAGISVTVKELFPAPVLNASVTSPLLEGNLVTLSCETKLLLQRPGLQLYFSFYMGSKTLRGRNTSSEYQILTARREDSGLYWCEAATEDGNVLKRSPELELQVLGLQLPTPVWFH
# B1: IL6R-P653/IL6R-L (antibody)
# chain 1: QVQLQESGPGLVKPSETLSLTCAVSGHSISHDHAWSWVRQPPGEGLEWIGFISYSGITNYNPSLQGRVTISRDNSKNTLYLQMNSLRAEDTAVYYCARSLARTTAMDYWGEGTLVTVSSASTKGPSVFPLAPSSKSTSGGTAALGCLVKDYFPEPVTVSWNSGALTSGVHTFPAVLQSSGLYSLSSVVTVPSSSLGTQTYICNVNHKPSNTKVDKKVEPKSCDKTHTCPPCPAPELLGGDSVMLFPPKPKDTLMISRTPEVTCVVVDVSPEDPEVKFNWYVDGVEVHNAKTKPREEQENSTYRVVSVLTVLHQDWLNGKEYKCKVSNKALPAPIEKTISKAKGQPREPQVYTLPPSRDELTKNQVSLTCLVKGFYPSDIAVEWESNGQPENNYKTTPPVLDSDGSFFLYSKLTVDKSRWQQGNVFSCSVMHEALHNHYTQKSLSLSP
# chain 2: not shown
# B2: IL6R-P661/IL6R-L (antibody)
# chain 1: B1 chain 1 with M243F, P270H, E298Y, S300A, A332H
# chain 2: not shown
# B3: IL6R-P732/IL6R-L (antibody)
# chain 1: B1 chain 1 with L237F, S326H
# chain 2: not shown
# B4: IL6R-P727/IL6R-L (antibody)
# chain 1: B1 chain 1 with G239Q, A332H
# chain 2: not shown
# B5: IL6R-P734/IL6R-L (antibody)
# chain 1: B1 chain 1 with L237F, G239Q, P270H, S326H, A332H
# chain 2: not shown
# B6: IL6R-P733/IL6R-L (antibody)
# chain 1: B1 chain 1 with L237F, G239Q, S326H
# chain 2: not shown
# B7: IL6R-P699/IL6R-L (antibody)
# chain 1: B1 chain 1 with E235D, M243F, V266I, S269R, P273G, E298Y
# chain 2: not shown
# B8: IL6R-P694/IL6R-L (antibody)
# chain 1: B1 chain 1 with E235D, M243F, V266I, S269R, P270E, P273G
# chain 2: not shown
# B9: IL6R-P730/IL6R-L (antibody)
# chain 1: B1 chain 1 with E235D, G239Q, M243F, V266I, S269R, P273G
# chain 2: not shown
# B10: IL6R-P712/IL6R-L (antibody)
# chain 1: B1 chain 1 with E235D, M243F, V266I, S269R, P273G
# chain 2: not shown
# B11: IL6R-P702/IL6R-L (antibody)
# chain 1: B1 chain 1 with E235D, V266I, S269R, P270E, P273G, E298Y
# chain 2: not shown
# B12: IL6R-P577/IL6R-L (antibody)
# chain 1: B1 chain 1 with E235D, G239D, M243F, V266I, S269A, P270E, P273G, E298D, A332R, P398M
# chain 2: not shown
# B13: IL6R-P631/IL6R-L (antibody)
# chain 1: B1 chain 1 with E235D, M243F, V266I, D267N, S269A, P270E, P273G, E298Y
# chain 2: not shown
# B14: IL6R-P665/IL6R-L (antibody)
# chain 1: QVQLQESGPGLVKPSETLSLTCAVSGHSISHDHAWSWVRQPPGEGLEWIGFISYSGITNYNPSLQGRVTISRDNSKNTLYLQMNSLRAEDTAVYYCARSLARTTAMDYWGEGTLVTVSSASTKGPSVFPLAPSSKSTSGGTAALGCLVKDYFPEPVTVSWNSGALTSGVHTFPAVLQSSGLYSLSSVVTVPSSSLGTQTYICNVNHKPSNTKVDKKVEPKSCDKTHTCPPCPAPDLLGDDSVFLFPPKPKDTLMISRTPEVTCVVIDVAEEDGEVKFNWYVDGVEVHNAKTKPREEQDASTYRVVSVLTVLHQDWLNGKEYKCKVSNKALPRPIEKTISKAKGQPREPQVYTLPPSRDELTKNQVSLTCLVKGFYPSDIAVEWESNGQPENNYKTTPMVLDSDGSFFLYSKLTVDKSRWQQGNVFSCSVMHEALHNHYTQKSLSLSP
# chain 2: not shown
# B15: IL6R-P652/IL6R-L (antibody)
# chain 1: B14 chain 1 with A269Y, A299N
# chain 2: not shown
# B16: IL6R-P629/IL6R-L (antibody)
# chain 1: B14 chain 1 with D239K, D298Y, A299N, R332A, M398P
# chain 2: not shown
# B17: IL6R-P625/IL6R-L (antibody)
# chain 1: B14 chain 1 with L236K, D239G, D298Y, A299N, R332A, M398P
# chain 2: not shown
# B18: IL6R-P636/IL6R-L (antibody)
# chain 1: B14 chain 1 with D239G, A269R, D298Y, A299N, R332A, M398P
# chain 2: not shown
# B19: IL6R-P626/IL6R-L (antibody)
# chain 1: B14 chain 1 with L236R, D239G, D298Y, A299N, R332A, M398P
# chain 2: not shown
# Biological target: T1, FcgRIIaH
# Assay: SPR
row,Kd,Binder
1,110 µM,B1
2,94 µM,B2
3,100 µM,B3
4,150 µM,B4
5,84 µM,B5
6,180 µM,B6

# Biological target: T5, FcgRIIIaV (human, UniProt P08637)
# Assay: SPR
# T5 sequence (P08637 17-208 F176V): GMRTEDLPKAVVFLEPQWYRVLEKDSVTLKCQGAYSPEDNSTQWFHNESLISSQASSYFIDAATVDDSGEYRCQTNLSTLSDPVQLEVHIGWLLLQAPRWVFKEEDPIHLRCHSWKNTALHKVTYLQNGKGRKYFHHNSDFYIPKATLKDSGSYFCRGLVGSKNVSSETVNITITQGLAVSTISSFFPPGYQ
row,Kd,Binder
1,65 µM,B7
2,47 µM,B8
3,73 µM,B9
4,82 µM,B10
5,44 µM,B11

# Biological target: T2, FcgRIIb
# Assay: SPR
row,Kd,Binder
1,3.5 µM,B1
2,4 µM,B2
3,2.9 µM,B3
4,4.8 µM,B4
5,2.5 µM,B5
6,4.7 µM,B6

# Biological target: T1, FcgRIIaH
# Assay: SPR
# Remark: another data set of the same source
row,Kd,Binder
1,250 µM,B7
2,200 µM,B8
3,310 µM,B9
4,300 µM,B10
5,170 µM,B11

# Biological target: T5, FcgRIIIaV
# Assay: SPR
# Remark: another data set of the same source
row,Kd,Binder
1,12 µM,B12

# Biological target: T2, FcgRIIb
# Assay: SPR
# Remark: another data set of the same source
row,Kd,Binder
1,4.1 µM,B7
2,2.8 µM,B8
3,10 µM,B9
4,3.4 µM,B10
5,4 µM,B11

# Biological target: T3, FcgRIIaR
# Assay: SPR
row,Kd,Binder
1,26 µM,B13
2,49 µM,B14
3,24 µM,B15
4,27 µM,B16
5,24 µM,B17
6,54 µM,B18
7,31 µM,B19

# Biological target: T1, FcgRIIaH
# Assay: SPR
# Remark: another data set of the same source
row,Kd,Binder
1,96 µM,B13
2,450 µM,B14
3,170 µM,B15
4,100 µM,B16
5,180 µM,B17
6,170 µM,B18
7,200 µM,B19

# Biological target: T3, FcgRIIaR
# Assay: SPR
# Remark: another data set of the same source
row,Kd,Binder
1,0.044 µM,B12

# Biological target: T4, FcgRIa
# Assay: SPR
row,Kd,Binder
1,0.018 µM,B1
2,0.01 µM,B2
3,0.7 µM,B3
4,0.23 µM,B4
5,0.22 µM,B5
6,2.5 µM,B6

# Biological target: T1, FcgRIIaH
# Assay: SPR
# Remark: another data set of the same source
row,Kd,Binder
1,1 µM,B12

# Biological target: T4, FcgRIa
# Assay: SPR
# Remark: another data set of the same source
row,Kd,Binder
1,0.69 µM,B7
2,0.41 µM,B8
3,1.5 µM,B9
4,0.68 µM,B10
5,0.57 µM,B11

# Biological target: T3, FcgRIIaR
# Assay: SPR
# Remark: another data set of the same source
row,Kd,Binder
1,57 µM,B7
2,61 µM,B8
3,95 µM,B9
4,71 µM,B10
5,54 µM,B11

# Biological target: T5, FcgRIIIaV
# Assay: SPR
# Remark: another data set of the same source
row,Kd,Binder
1,47 µM,B13
2,67 µM,B14
3,72 µM,B15
4,47 µM,B16
5,66 µM,B17
6,45 µM,B18
7,75 µM,B19

# Biological target: T4, FcgRIa
# Assay: SPR
# Remark: another data set of the same source
row,Kd,Binder
1,0.011 µM,B13
2,1.9 µM,B14
3,0.72 µM,B15
4,0.0033 µM,B16
5,0.5 µM,B17
6,0.46 µM,B18
7,0.74 µM,B19

# Biological target: T3, FcgRIIaR
# Assay: SPR
# Remark: another data set of the same source
row,Kd,Binder
1,51 µM,B1
2,41 µM,B2
3,72 µM,B3
4,100 µM,B4
5,68 µM,B5
6,130 µM,B6

# Biological target: T5, FcgRIIIaV
# Assay: SPR
# Remark: another data set of the same source
row,Kd,Binder
1,50 µM,B1
2,29 µM,B2
3,76 µM,B3
4,66 µM,B4
5,100 µM,B5
6,77 µM,B6

# Biological target: T2, FcgRIIb
# Assay: SPR
# Remark: another data set of the same source
row,Kd,Binder
1,4.4 µM,B13
2,3.2 µM,B14
3,1.2 µM,B15
4,0.65 µM,B16
5,1.7 µM,B17
6,2.9 µM,B18
7,2.7 µM,B19

# Biological target: T2, FcgRIIb
# Assay: SPR
# Remark: another data set of the same source
row,Kd,Binder
1,0.0012 µM,B12
